Reference: publication PMC11847541, “Liver fatty acid binding protein FABP1 transfers substrates to cytochrome P450 4A11 for catalysis” (The Journal of Biological Chemistry, 2025)

Biological target: T1, P450 4A11 (Homo sapiens, UniProt Q02928)
T1 construct: made in house; host or cells: E. coli
T1 sequence (Q02928 5-519): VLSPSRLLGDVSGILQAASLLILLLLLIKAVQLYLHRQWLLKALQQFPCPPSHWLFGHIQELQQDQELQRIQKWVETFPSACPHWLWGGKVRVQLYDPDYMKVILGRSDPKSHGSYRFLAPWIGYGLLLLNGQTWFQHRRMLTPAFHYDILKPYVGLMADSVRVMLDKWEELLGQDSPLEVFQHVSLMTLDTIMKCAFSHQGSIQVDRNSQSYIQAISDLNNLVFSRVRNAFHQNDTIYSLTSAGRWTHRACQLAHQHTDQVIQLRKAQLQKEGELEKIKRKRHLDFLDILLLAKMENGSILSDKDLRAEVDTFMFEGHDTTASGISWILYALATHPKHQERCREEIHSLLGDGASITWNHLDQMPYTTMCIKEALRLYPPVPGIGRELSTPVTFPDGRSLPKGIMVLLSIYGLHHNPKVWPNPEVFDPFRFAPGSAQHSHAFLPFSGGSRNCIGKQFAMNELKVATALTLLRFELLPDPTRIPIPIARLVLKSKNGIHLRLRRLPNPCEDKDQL
T1 sequence (P07148 with tags, fused parts or gaps partner): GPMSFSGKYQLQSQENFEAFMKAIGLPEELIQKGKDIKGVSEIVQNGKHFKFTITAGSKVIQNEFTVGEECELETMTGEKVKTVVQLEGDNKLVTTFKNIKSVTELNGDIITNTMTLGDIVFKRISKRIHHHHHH
Assay: Alexa-FABP1 and P450 4A11 association kinetics (stopped-flow fluorescence)
Assay type: binding
Method: We then investigated whether the rate of protein–protein association could be estimated using our fluorescent construct. A solution of Alexa-FABP1 (125 nM final concentration) was rapidly mixed with P450 4A11 (125 Nm final concentration), and Alexa-488 fluorescence was monitored over time. The data were fit to a single exponential equation and yielded an association rate of 2.0 ± 0.2 s^−1 (Fig. 10B).
To estimate a rate of interaction for FABP1 and P450, we loaded the protein–protein binding data (Fig. 10B) and fit the data to a simple model, E+F↔EF , as described in the Experimental procedures section. The software fit a kon rate of 2.0 × 10^7 M^−1 s^−1, close to that estimated by using the extracted binding rate ∼2 s^−1 at the concentration (0.125 μM) of either reaction component (i.e., 2 s^−1/0.125 μM = 16 μM^−1 s^−1 = 1.6 × 10^7 M^−1 s^−1).
Mixing solutions (2 ml) of (A) Alexa-FABP1 (0.25 μM [estimated by A280 prior to conjugation reaction, accounting for dilution, and assuming no protein loss during the reaction as described earlier]) and (B) P450 4A11 (0.25 μM) were prepared in potassium phosphate buffer (100 mM, pH 7.4) and loaded into the stopped-flow spectrofluorometer described earlier. The instrument (1.24 mm slit width) was set with an excitation wavelength of 470 nm and Oriel end-on filter for emission >495 nm. The fluorescence maximum of Alexa-FABP1 is 510 nm as described earlier, and stimulation is observed upon protein–protein binding (see “Titrations of Alexa-FABP1 with P450 4A11”). At least six replicate measurements were recorded, the spectra were processed such that the fluorescence gain (from DAUDA binding) began at an (x, y) intercept of (0, 0), and the spectra were averaged. A smoothing factor of 0.4 was applied to the data (in Microsoft Excel), and the resulting curve was fit to a single exponential plot in GraphPad Prism, and the rate of association was extracted. The data were loaded into KinTek Explorer and fit to a minimal kinetic model of protein–protein association (i.e., E+F↔EF ), and a second-order rate constant for the association was extracted.

Question: Which “rate of protein–protein association” value (Alexa-FABP1 0.125 μM, P450 4A11 0.125 μM, single exponential) does the source give for “FABP1: delipidated recombinant liver fatty acid binding protein with C-terminal hexahistidine tag” here?
Answer: Its value is roughly 2 s⁻¹.

Question: What about the “kon of FABP1–P450 4A11 association (k6)” value (KinTek fit to E+F↔EF) of the same substance?
Answer: The value was 2.0 × 10^7 (k6) M^−1 s^−1.

Question: What about the “kon of FABP1–P450 4A11 association” value (binding rate ∼2 s^−1 divided by 0.125 μM) of the same substance?
Answer: Its value is 1.6e+07 M⁻¹ s⁻¹.

Question: What about the “koff of FABP1–P450 4A11 (k-6)” value (calculated from kon and Kd) of the same substance?
Answer: The value was 2.4 (k-6) s^−1.
